{
  "source": "paper PMC12055905",
  "origin": "cited, not measured here",
  "target": "SARS-CoV-2 spike RBD (SARS-CoV-2) (UniProt P0DTC2)",
  "data": [
    {"substance": "HBD-2 (from UniProt O15263)", "values": [
      {"measurement": "Kd", "value": 0.3, "unit": "µM"}
    ]}
  ]
}
